Experimental data: article PMC9482650, “Quantitative fragmentomics allow affinity mapping of interactomes” (Nature Communications, 2022)

T1: HTRA4, P83105
T1 sequence (P83105 378-476, limits assumed, looked up): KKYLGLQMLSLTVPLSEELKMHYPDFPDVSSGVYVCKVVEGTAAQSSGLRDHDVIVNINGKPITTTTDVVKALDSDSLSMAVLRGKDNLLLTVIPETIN

T2: GRIP1_3, Q9Y3R0
T2 sequence (Q9Y3R0 247-346, limits assumed, looked up): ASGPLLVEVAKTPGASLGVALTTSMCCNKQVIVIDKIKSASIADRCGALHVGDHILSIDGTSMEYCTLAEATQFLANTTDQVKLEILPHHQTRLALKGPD

T3: APBA2_2, Q99767
T3 sequence (Q99767 654-744, limits assumed, looked up): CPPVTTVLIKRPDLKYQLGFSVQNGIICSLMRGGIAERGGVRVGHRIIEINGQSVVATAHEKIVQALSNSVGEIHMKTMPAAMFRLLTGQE

T4: SIPA1L2, Q9P2F8
T4 sequence (Q9P2F8 945-1036, limits assumed, looked up): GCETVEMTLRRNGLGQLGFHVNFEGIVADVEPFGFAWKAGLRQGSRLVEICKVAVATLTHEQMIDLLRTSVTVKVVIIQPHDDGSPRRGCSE

T5: TIAM2, Q8IVF5
T5 sequence (Q8IVF5 885-986, limits assumed, looked up): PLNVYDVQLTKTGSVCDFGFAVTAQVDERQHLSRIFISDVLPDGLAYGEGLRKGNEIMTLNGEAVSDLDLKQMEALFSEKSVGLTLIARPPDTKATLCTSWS

T6: MPDZ_5, O75970
T6 sequence (O75970 695-796, limits assumed, looked up): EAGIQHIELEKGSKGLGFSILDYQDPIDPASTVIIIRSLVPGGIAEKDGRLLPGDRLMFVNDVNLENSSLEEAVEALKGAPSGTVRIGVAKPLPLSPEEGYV

T7: SNTB1, Q13884
T7 sequence (Q13884 107-205, limits assumed, looked up): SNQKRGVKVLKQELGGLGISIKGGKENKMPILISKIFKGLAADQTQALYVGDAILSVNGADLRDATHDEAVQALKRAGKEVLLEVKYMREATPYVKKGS

T8: RAPGEF6, Q8TEU7
T8 sequence (Q8TEU7 525-625, limits assumed, looked up): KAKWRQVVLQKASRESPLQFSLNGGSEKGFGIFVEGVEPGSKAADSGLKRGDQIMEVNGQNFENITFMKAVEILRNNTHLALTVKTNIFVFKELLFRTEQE

T9: LNX2_3, Q8N448
T9 sequence (Q8N448 463-564, limits assumed, looked up): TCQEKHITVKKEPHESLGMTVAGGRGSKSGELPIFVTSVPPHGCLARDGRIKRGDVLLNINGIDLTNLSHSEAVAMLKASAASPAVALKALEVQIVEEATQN

T10: MPP6, Q9NZW5
T10 sequence (Q9NZW5 125-219, limits assumed, looked up): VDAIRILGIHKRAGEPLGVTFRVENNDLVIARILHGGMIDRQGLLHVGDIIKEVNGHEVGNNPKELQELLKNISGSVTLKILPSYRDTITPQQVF

T11: LRRC7, Q96NW7
T11 sequence (Q96NW7 1440-1537, limits assumed, looked up): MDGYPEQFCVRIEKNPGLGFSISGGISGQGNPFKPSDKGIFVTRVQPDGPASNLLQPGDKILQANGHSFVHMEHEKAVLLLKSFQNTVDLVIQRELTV


Legend:
Experiment in all cases: holdup assay
Parameters in all cases: key: below the threshold = too weak to quantify, mostly under pKd 3.1 to 4
Details in all cases: plain residues with an end cap or a label only (N-terminal biotin on a linker: ado-ado)
HTRA4, P83105 = molecular target: T1, HTRA4, P83105
DLG1_1, Q12959 = molecular target: DLG1_1, Q12959
GRIP1_3, Q9Y3R0 = molecular target: T2, GRIP1_3, Q9Y3R0
PTPN3, P26045 = molecular target: PTPN3, P26045
PTPN3, P26045, sequence (P26045 505-587): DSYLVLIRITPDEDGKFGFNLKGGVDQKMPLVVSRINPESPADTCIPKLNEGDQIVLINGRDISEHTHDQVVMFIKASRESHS

APBA2_2, Q99767 = molecular target: T3, APBA2_2, Q99767
SIPA1L2, Q9P2F8 = molecular target: T4, SIPA1L2, Q9P2F8
FRMPD2_1, Q68DX3 = molecular target: FRMPD2_1, Q68DX3
FRMPD2_1, Q68DX3, sequence (Q68DX3 770-861): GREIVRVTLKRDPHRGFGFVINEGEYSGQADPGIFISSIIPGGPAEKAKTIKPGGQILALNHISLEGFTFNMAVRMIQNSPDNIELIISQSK

TIAM2, Q8IVF5 = molecular target: T5, TIAM2, Q8IVF5
MPDZ_5, O75970 = molecular target: T6, MPDZ_5, O75970
PDLIM1, O00151 = molecular target: PDLIM1, O00151
PDLIM1, O00151, sequence (O00151 1-87): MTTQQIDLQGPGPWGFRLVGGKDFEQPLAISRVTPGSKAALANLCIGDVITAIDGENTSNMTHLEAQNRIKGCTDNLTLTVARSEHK

DLG4_1, P78352 = molecular target: DLG4_1, P78352
DLG4_1, P78352, sequence (P78352 62-152): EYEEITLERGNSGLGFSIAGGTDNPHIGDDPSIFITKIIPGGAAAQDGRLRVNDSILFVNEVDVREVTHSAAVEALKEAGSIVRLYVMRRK

SNTB1, Q13884 = molecular target: T7, SNTB1, Q13884
MAST1, Q9Y2H9 = molecular target: MAST1, Q9Y2H9
MAST1, Q9Y2H9, sequence (Q9Y2H9 962-1065): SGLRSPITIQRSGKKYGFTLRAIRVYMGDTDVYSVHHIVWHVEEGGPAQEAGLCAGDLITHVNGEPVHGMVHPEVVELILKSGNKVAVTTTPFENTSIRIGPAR

RAPGEF6, Q8TEU7 = molecular target: T8, RAPGEF6, Q8TEU7
MAGI2_3, Q86UL8 = molecular target: MAGI2_3, Q86UL8
MAGI2_3, Q86UL8, sequence (Q86UL8 600-682): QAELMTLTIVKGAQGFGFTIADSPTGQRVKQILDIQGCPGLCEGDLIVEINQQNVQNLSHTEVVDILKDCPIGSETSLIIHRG

MAGI2_2, Q86UL8 = molecular target: MAGI2_2, Q86UL8
MAGI2_2, Q86UL8, sequence (Q86UL8 410-522): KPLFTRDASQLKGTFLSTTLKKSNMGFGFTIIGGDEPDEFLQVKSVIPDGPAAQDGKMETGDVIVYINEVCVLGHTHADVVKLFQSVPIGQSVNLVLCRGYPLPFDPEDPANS

LNX2_3, Q8N448 = molecular target: T9, LNX2_3, Q8N448
MPP6, Q9NZW5 = molecular target: T10, MPP6, Q9NZW5
HTRA1, Q92743 = molecular target: HTRA1, Q92743
HTRA1, Q92743, sequence (Q92743 360-477): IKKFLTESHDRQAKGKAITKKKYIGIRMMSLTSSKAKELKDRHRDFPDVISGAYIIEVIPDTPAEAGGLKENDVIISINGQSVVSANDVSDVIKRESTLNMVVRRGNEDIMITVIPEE

PICK1, Q9NRD5 = molecular target: PICK1, Q9NRD5
PICK1, Q9NRD5, sequence (Q9NRD5 17-115): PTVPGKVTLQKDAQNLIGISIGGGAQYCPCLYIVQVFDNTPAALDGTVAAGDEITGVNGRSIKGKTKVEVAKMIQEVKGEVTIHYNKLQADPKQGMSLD

LRRC7, Q96NW7 = molecular target: T11, LRRC7, Q96NW7
FRMPD2_2, Q68DX3 = molecular target: FRMPD2_2, Q68DX3
FRMPD2_2, Q68DX3, sequence (Q68DX3 944-1038): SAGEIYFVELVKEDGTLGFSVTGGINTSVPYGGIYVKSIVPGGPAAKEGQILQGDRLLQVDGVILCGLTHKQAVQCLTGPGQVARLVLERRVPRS

GRIP2_5, Q9C0E4 = molecular target: GRIP2_5, Q9C0E4
GRIP2_5, Q9C0E4, sequence (Q9C0E4 544-642): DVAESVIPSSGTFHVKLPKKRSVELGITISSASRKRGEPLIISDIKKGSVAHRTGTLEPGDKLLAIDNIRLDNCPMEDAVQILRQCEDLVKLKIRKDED

IL16_1, Q14005 = molecular target: IL16_1, Q14005
IL16_1, Q14005, sequence (Q14005 210-306): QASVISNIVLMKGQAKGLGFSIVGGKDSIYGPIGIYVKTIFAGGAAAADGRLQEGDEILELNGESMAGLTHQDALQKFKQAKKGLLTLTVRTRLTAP

LDB3, O75112 = molecular target: LDB3, O75112
LDB3, O75112, sequence (O75112 1-94): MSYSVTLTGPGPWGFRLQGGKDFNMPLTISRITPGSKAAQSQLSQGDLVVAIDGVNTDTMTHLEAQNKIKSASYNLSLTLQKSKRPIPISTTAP

DLG4_3, P78352 = molecular target: DLG4_3, P78352
DLG4_3, P78352, sequence (P78352 306-403): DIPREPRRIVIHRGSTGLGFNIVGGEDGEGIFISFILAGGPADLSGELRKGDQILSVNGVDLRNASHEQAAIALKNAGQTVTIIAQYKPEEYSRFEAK

NHERF2_2, Q15599 = molecular target: NHERF2_2, Q15599
NHERF2_2, Q15599, sequence (Q15599 142-238): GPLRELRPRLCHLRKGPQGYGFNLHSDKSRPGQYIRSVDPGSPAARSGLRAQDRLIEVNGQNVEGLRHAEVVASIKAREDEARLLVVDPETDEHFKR

Row | Binder | pKd (HTRA4, P83105) | pKd (DLG1_1, Q12959) | pKd (GRIP1_3, Q9Y3R0) | pKd (PTPN3, P26045) | pKd (APBA2_2, Q99767) | pKd (SIPA1L2, Q9P2F8) | pKd (FRMPD2_1, Q68DX3) | pKd (TIAM2, Q8IVF5) | pKd (MPDZ_5, O75970) | pKd (PDLIM1, O00151) | pKd (DLG4_1, P78352) | pKd (SNTB1, Q13884) | pKd (MAST1, Q9Y2H9) | pKd (RAPGEF6, Q8TEU7) | pKd (MAGI2_3, Q86UL8) | pKd (MAGI2_2, Q86UL8) | pKd (LNX2_3, Q8N448) | pKd (MPP6, Q9NZW5) | pKd (HTRA1, Q92743) | pKd (PICK1, Q9NRD5) | further results
1 | IPGKEFDTPL [PLCB1, Q9NQ66] | below the threshold | below the threshold | below the threshold | 4.82 | below the threshold | below the threshold | below the threshold | below the threshold | below the threshold | below the threshold | 3.51 | 3.96 | 4.31 | below the threshold | below the threshold | below the threshold | below the threshold | 3.59 | below the threshold | below the threshold | pKd (LRRC7, Q96NW7): below the threshold; pKd (FRMPD2_2, Q68DX3): below the threshold; pKd (GRIP2_5, Q9C0E4): below the threshold; pKd (IL16_1, Q14005): below the threshold; pKd (LDB3, O75112): below the threshold; pKd (DLG4_3, P78352): below the threshold; pKd (NHERF2_2, Q15599): 5.1
2 | ALPLPQSSTC [IGF1R, P08069] | below the threshold | below the threshold | below the threshold | below the threshold | below the threshold | below the threshold | below the threshold | below the threshold | below the threshold | below the threshold | below the threshold | below the threshold | below the threshold | below the threshold | below the threshold | below the threshold | below the threshold | below the threshold | 3.69 | below the threshold | pKd (LRRC7, Q96NW7): below the threshold; pKd (FRMPD2_2, Q68DX3): below the threshold; pKd (GRIP2_5, Q9C0E4): below the threshold; pKd (IL16_1, Q14005): below the threshold; pKd (LDB3, O75112): below the threshold; pKd (DLG4_3, P78352): below the threshold; pKd (NHERF2_2, Q15599): below the threshold
3 | DHLGGGGESM [TNRC6A, Q8NDV7] | below the threshold | below the threshold | below the threshold | 3.7 | below the threshold | below the threshold | below the threshold | below the threshold | below the threshold | below the threshold | below the threshold | below the threshold | 3.91 | below the threshold | below the threshold | below the threshold | below the threshold | 3.69 | below the threshold | below the threshold | pKd (LRRC7, Q96NW7): below the threshold; pKd (FRMPD2_2, Q68DX3): below the threshold; pKd (GRIP2_5, Q9C0E4): below the threshold; pKd (IL16_1, Q14005): below the threshold; pKd (LDB3, O75112): below the threshold; pKd (DLG4_3, P78352): below the threshold; pKd (NHERF2_2, Q15599): below the threshold
4 | TGPWKNETTV [ADGRA1, Q86SQ6] | 3.92 | 4.82 | below the threshold | 4.76 | below the threshold | below the threshold | below the threshold | below the threshold | below the threshold | below the threshold | 4.99 | 4.67 | 4.71 | below the threshold | 3.94 | 5.17 | below the threshold | below the threshold | 4.26 | below the threshold | pKd (LRRC7, Q96NW7): below the threshold; pKd (FRMPD2_2, Q68DX3): 3.57; pKd (GRIP2_5, Q9C0E4): below the threshold; pKd (IL16_1, Q14005): 3.83; pKd (LDB3, O75112): below the threshold; pKd (DLG4_3, P78352): 4.61; pKd (NHERF2_2, Q15599): below the threshold
5 | REKKFFCTIL [GNG4, P50150] | 4.76 | 4.23 | below the threshold | 4.47 | 3.47 | 4.01 | 3.88 | 3.98 | below the threshold | below the threshold | 4.06 | 4.43 | 5.2 | below the threshold | below the threshold | 4.63 | below the threshold | below the threshold | 5.48 | below the threshold | pKd (LRRC7, Q96NW7): 3.97; pKd (FRMPD2_2, Q68DX3): below the threshold; pKd (GRIP2_5, Q9C0E4): below the threshold; pKd (IL16_1, Q14005): 3.67; pKd (LDB3, O75112): below the threshold; pKd (DLG4_3, P78352): 4.17; pKd (NHERF2_2, Q15599): 4.52
